PMC9957003, “Functional Analyses of Rare Germline Missense BRCA1 Variants Located within and outside Protein Domains with Known Functions” (Genes, 2023)
Residue numbers refer to the chain shown, from its start.

T1: BARD1-V5 WT (BRCA1-Associated RING Domain protein 1) (UniProt Q99728 1-777)
T1 construct: BARD1 (BRCA1-Associated RING Domain protein 1), wild type; also called pcDNA6.2-BARD1-V5; source: HEK293FT, transiently co-transfected, in lysate
T1 sequence (looked up): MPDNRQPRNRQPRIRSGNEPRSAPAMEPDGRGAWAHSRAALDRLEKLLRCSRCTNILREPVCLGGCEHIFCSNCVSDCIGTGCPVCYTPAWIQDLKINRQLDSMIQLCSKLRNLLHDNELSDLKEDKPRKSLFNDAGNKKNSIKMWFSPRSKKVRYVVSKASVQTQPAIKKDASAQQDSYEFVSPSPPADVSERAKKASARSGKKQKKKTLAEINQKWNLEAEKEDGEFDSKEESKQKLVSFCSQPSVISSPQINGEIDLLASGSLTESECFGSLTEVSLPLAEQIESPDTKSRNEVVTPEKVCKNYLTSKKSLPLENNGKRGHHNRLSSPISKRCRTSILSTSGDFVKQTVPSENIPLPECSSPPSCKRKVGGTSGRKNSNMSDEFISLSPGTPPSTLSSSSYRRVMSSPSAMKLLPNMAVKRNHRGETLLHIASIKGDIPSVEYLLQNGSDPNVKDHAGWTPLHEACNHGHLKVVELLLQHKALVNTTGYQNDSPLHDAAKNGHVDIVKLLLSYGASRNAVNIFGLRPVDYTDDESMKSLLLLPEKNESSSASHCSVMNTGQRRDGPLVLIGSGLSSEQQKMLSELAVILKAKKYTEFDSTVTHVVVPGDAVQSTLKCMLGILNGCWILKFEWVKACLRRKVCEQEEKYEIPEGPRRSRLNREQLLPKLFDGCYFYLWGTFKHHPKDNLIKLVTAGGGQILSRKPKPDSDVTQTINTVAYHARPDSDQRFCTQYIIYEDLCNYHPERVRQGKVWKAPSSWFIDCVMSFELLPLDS

T2: Flag-PALB2 WT (Partner and Localiser of BRCA2) (UniProt Q86YC2 1-1186)
T2 construct: PALB2 (Partner and Localiser of BRCA2), wild type; printed both as Flag-PALB2 and as PALB2-Flag; also called PALB2-Flag; pDEST-FRT/T0-Flag-PALB2; source: HEK293FT, transiently co-transfected, in lysate
T2 sequence (looked up): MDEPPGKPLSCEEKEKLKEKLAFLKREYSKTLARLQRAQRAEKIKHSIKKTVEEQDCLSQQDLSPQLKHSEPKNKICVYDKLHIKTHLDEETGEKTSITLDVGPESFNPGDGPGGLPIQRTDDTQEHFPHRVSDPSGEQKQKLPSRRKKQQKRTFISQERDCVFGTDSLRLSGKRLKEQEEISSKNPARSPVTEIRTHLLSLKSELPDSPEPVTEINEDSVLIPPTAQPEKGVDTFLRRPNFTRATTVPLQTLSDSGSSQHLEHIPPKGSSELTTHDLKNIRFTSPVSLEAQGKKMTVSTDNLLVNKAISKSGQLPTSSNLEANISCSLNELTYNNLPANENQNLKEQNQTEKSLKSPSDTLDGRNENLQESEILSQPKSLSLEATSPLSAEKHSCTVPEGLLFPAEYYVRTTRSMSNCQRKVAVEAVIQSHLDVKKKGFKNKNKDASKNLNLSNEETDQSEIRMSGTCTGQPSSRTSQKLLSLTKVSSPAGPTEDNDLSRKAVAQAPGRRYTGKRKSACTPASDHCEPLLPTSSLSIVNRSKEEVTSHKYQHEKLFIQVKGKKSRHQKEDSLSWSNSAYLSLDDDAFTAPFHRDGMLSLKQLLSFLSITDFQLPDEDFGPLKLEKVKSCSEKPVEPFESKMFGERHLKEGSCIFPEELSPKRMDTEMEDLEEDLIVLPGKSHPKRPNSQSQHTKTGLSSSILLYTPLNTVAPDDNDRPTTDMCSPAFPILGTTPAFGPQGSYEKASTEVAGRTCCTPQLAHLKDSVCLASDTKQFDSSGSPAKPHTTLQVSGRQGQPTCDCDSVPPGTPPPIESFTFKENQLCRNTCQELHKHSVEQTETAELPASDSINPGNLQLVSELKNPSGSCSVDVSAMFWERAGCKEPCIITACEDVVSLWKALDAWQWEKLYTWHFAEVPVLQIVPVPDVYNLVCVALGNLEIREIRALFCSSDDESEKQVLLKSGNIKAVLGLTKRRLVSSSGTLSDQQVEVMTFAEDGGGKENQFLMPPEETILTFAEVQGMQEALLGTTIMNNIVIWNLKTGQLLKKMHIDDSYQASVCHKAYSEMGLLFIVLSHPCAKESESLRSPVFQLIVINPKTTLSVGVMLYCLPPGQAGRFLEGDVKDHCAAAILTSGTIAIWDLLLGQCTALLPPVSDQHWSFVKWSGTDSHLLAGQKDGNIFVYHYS

B1: BRCA1 p.Arg504Cys (full-length, mCherry-tagged) (natural protein, human, UniProt P38398 1-1863, looked up)
chain: MDLSALRVEEVQNVINAMQKILECPICLELIKEPVSTKCDHIFCKFCMLKLLNQKKGPSQCPLCKNDITKRSLQESTRFSQLVEELLKIICAFQLDTGLEYANSYNFAKKENNSPEHLKDEVSIIQSMGYRNRAKRLLQSEPENPSLQETSLSVQLSNLGTVRTLRTKQRIQPQKTSVYIELGSDSSEDTVNKATYCSVGDQELLQITPQGTRDEISLDSAKKAACEFSETDVTNTEHHQPSNNDLNTTEKRAAERHPEKYQGSSVSNLHVEPCGTNTHASSLQHENSSLLLTKDRMNVEKAEFCNKSKQPGLARSQHNRWAGSKETCNDRRTPSTEKKVDLNADPLCERKEWNKQKLPCSENPRDTEDVPWITLNSSIQKVNEWFSRSDELLGSDDSHDGESESNAKVADVLDVLNEVDEYSGSSEKIDLLASDPHEALICKSERVHSKSVESNIEDKIFGKTYRKKASLPNLSHVTENLIIGAFVTEPQIIQERPLTNKLKCKRRPTSGLHPEDFIKKADLAVQKTPEMINQGTNQTEQNGQVMNITNSGHENKTKGDSIQNEKNPNPIESLEKESAFKTKAEPISSSISNMELELNIHNSKAPKKNRLRRKSSTRHIHALELVVSRNLSPPNCTELQIDSCSSSEEIKKKKYNQMPVRHSRNLQLMEGKEPATGAKKSNKPNEQTSKRHDSDTFPELKLTNAPGSFTKCSNTSELKEFVNPSLPREEKEEKLETVKVSNNAEDPKDLMLSGERVLQTERSVESSSISLVPGTDYGTQESISLLEVSTLGKAKTEPNKCVSQCAAFENPKGLIHGCSKDNRNDTEGFKYPLGHEVNHSRETSIEMEESELDAQYLQNTFKVSKRQSFAPFSNPGNAEEECATFSAHSGSLKKQSPKVTFECEQKEENQGKNESNIKPVQTVNITAGFPVVGQKDKPVDNAKCSIKGGSRFCLSSQFRGNETGLITPNKHGLLQNPYRIPPLFPIKSFVKTKCKKNLLEENFEEHSMSPEREMGNENIPSTVSTISRNNIRENVFKEASSSNINEVGSSTNEVGSSINEIGSSDENIQAELGRNRGPKLNAMLRLGVLQPEVYKQSLPGSNCKHPEIKKQEYEEVVQTVNTDFSPYLISDNLEQPMGSSHASQVCSETPDDLLDDGEIKEDTSFAENDIKESSAVFSKSVQKGELSRSPSPFTHTHLAQGYRRGAKKLESSEENLSSEDEELPCFQHLLFGKVNNIPSQSTRHSTVATECLSKNTEENLLSLKNSLNDCSNQVILAKASQEHHLSEETKCSASLFSSQCSELEDLTANTNTQDPFLIGSSKQMRHQSESQGVGLSDKELVSDDEERGTGLEENNQEEQSMDSNLGEAASGCESETSVSEDCSGLSSQSDILTTQQRDTMQHNLIKLQQEMAELEAVLEQHGSQPSNSYPSIISDSSALEDLRNPEQSTSEKAVLTSQKSSEYPISQNPEGLSADKFEVSADSSTSKNKEPGVERSSPSKCPSLDDRWYMHSCSGSLQNRNYPSQEELIKVVDVEEQQLEESGPHDLTETSYLPRQDLEGTPYLESGISLFSDDPESDPSEDRAPESARVGNIPSSTSALKVPQLKVAESAQSPAAAHTTDTAGYNAMEESVSREKPELTASTERVNKRMSMVVSGLTPEEFMLVYKFARKHHITLTNLITEETTHVVMKTDAEFVCERTLKYFLGIAGGKWVVSYFWVTQSIKERKMLNEHDFEVRGDVVNGRNHQGPKRARESQDRKIFRGLEICCYGPFTNMPTDQLEWMVQLCGASVVKELSSFTLGTGVHPIVVVQPDAWTEDNGFHAIGQMCEAPVVTREWVLDSVALYQCQELDTYLIPQIPHSHY
notes: BRCA1, human, full-length, rare germline missense variant introduced in the WT plasmid; Made by site-directed mutagenesis of the plasmid of m1; also called c.1510C > T; source: HEK293FT, transiently co-transfected, in lysate
B2: BRCA1 p.Thr1256Ile (full-length, mCherry-tagged) (natural protein, human, UniProt P38398 1-1863, looked up)
chain: B1 chain with C504R, T1256I
notes: BRCA1, human, full-length, rare germline missense variant introduced in the WT plasmid; Made by site-directed mutagenesis of the plasmid of m1; also called c.3767C > T; source: HEK293FT, transiently co-transfected, in lysate
B3: BRCA1 p.Val1378Ile (full-length, mCherry-tagged; benign control variant, coiled-coil domain) (natural protein, human, UniProt P38398 1-1863, looked up)
chain: B1 chain with C504R, V1378I
notes: BRCA1, human, full-length, benign control missense variant in the coiled-coil domain, introduced in the WT plasmid; Made by site-directed mutagenesis of the plasmid of m1; also called c.4132G > A; source: HEK293FT, transiently co-transfected, in lysate
B4: BRCA1 p.Gly933Asp (full-length, mCherry-tagged) (natural protein, human, UniProt P38398 1-1863, looked up)
chain: B1 chain with C504R, G933D
notes: BRCA1, human, full-length, rare germline missense variant introduced in the WT plasmid; Made by site-directed mutagenesis of the plasmid of m1; also called c.2798G > A; source: HEK293FT, transiently co-transfected, in lysate
B5: BRCA1 p.Ile925Val (full-length, mCherry-tagged) (natural protein, human, UniProt P38398 1-1863, looked up)
chain: B1 chain with C504R, I925V
notes: BRCA1, human, full-length, rare germline missense variant introduced in the WT plasmid; Made by site-directed mutagenesis of the plasmid of m1; also called c.2773A > G; source: HEK293FT, transiently co-transfected, in lysate
B6: BRCA1 p.Arg612Gly (full-length, mCherry-tagged) (natural protein, human, UniProt P38398 1-1863, looked up)
chain: B1 chain with C504R, R612G
notes: BRCA1, human, full-length, rare germline missense variant introduced in the WT plasmid; Made by site-directed mutagenesis of the plasmid of m1; also called c.1834A > G; source: HEK293FT, transiently co-transfected, in lysate
B7: BRCA1 p.Arg610Thr (full-length, mCherry-tagged) (natural protein, human, UniProt P38398 1-1863, looked up)
chain: B1 chain with C504R, R610T
notes: BRCA1, human, full-length, rare germline missense variant introduced in the WT plasmid; Made by site-directed mutagenesis of the plasmid of m1; also called c.1829G > C; source: HEK293FT, transiently co-transfected, in lysate
B8: BRCA1 p.Leu523Val (full-length, mCherry-tagged) (natural protein, human, UniProt P38398 1-1863, looked up)
chain: B1 chain with C504R, L523V
notes: BRCA1, human, full-length, rare germline missense variant introduced in the WT plasmid; Made by site-directed mutagenesis of the plasmid of m1; also called c.1567T > G; source: HEK293FT, transiently co-transfected, in lysate
B9: BRCA1 p.Gly890Arg (full-length, mCherry-tagged) (natural protein, human, UniProt P38398 1-1863, looked up)
chain: B1 chain with C504R, G890R
notes: BRCA1, human, full-length, rare germline missense variant introduced in the WT plasmid; Made by site-directed mutagenesis of the plasmid of m1; also called c.2668G > A; source: HEK293FT, transiently co-transfected, in lysate
B10: BRCA1 p.Leu1439Phe (full-length, mCherry-tagged) (natural protein, human, UniProt P38398 1-1863, looked up)
chain: B1 chain with C504R, L1439F
notes: BRCA1, human, full-length, rare germline missense variant introduced in the WT plasmid; Made by site-directed mutagenesis of the plasmid of m1; also called c.4315C > T; source: HEK293FT, transiently co-transfected, in lysate
B11: BRCA1 p.Glu575Lys (full-length, mCherry-tagged) (natural protein, human, UniProt P38398 1-1863, looked up)
chain: B1 chain with C504R, E575K
notes: BRCA1, human, full-length, rare germline missense variant introduced in the WT plasmid; Made by site-directed mutagenesis of the plasmid of m1; also called c.1723G > A; source: HEK293FT, transiently co-transfected, in lysate

What was measured:
[1] = molecular target: T1, BARD1-V5 WT (BRCA1-Associated RING …); assay: co-IP; HEK293FT co-transfected with BRCA1 WT or variant and BARD1-V5; 2 mg lysate protein incubated 90 min at 4 °C with V5 antibody coupled to Dynabeads Protein G; non-denaturing elution; BRCA1 in the IP detected by anti-BRCA1 blot, normalised to the anti-V5 signal, % of WT; settings: partners not purified
[2] = molecular target: T2, Flag-PALB2 WT (Partner and Localiser of …); assay: co-IP; HEK293FT co-transfected with BRCA1 WT or variant and Flag-PALB2; 2 mg lysate protein incubated 90 min at 4 °C with Flag antibody coupled to Dynabeads Protein G; non-denaturing elution; BRCA1 in the IP detected by anti-BRCA1 blot, normalised to the anti-Flag signal, % of WT; settings: partners not purified

Binder	Co-IP BARD1 (% of WT) [1]	Co-IP PALB2 (% of WT) [2]
B1	63 % of WT	65 % of WT
B2	55 % of WT	79 % of WT
B3	–	72 % of WT
B4	73 % of WT	115 % of WT
B5	97 % of WT	88 % of WT
B6	71 % of WT	59 % of WT
B7	81 % of WT	56 % of WT
B8	71 % of WT	73 % of WT
B9	77 % of WT	89 % of WT
B10	60 % of WT	86 % of WT
B11	77 % of WT	66 % of WT
